Experimental findings from patent US20130209454A1 are described below.

Usually IC80 stands for the concentration at which the effect reaches the 80% level.

The target of experiment [1] is HIV-1 Env of strain 1394C9G1(Rev-) (HIV-1). The experiment is described as follows: cell-based or functional assay.
Experiment [2] addresses HIV-1 Env of strain TRJO4551.58 (HIV-1). The experiment is described as follows: cell-based or functional assay.
Experiment [3] has as its target HIV-1 Env of strain X1632_S2_B10 (HIV-1). The experiment is described as follows: cell-based or functional assay.
Experiment [4] concerns the target HIV-1 Env of strain 1012_11_TC21_3257 (HIV-1). The experiment is described as follows: cell-based or functional assay.
Experiment [5] addresses HIV-1 Env of strain CNE52 (HIV-1). The experiment is described as follows: cell-based or functional assay.
Experiment [6] concerns the target HIV-1 Env of strain Du172.17 (HIV-1). In words: cell-based or functional assay.
For experiment [7], the target named is YU2 gp160 point mutant at 279gp120 (HIV-1) (UniProt P35961).
The target in experiment [8] is HIV-1 strain YU2 gp160 (gp120) (HIV-1) (UniProt P35961).
For experiment [9], the target named is YU2 gp160 point mutant at 458gp120 (HIV-1) (UniProt P35961).
The target is the same in experiment [10]. The experiment is described as follows: cell-based or functional assay.
Experiment [11] has as its target Env of HIV-1 strain 62357_14_D3_4589 (HIV-1). In words: cell-based or functional assay.
The target of experiment [12] is Env of HIV-1 strain Q769.d22 (HIV-1). The experiment is described as follows: cell-based or functional assay.
Experiment [13] addresses Env of HIV-1 strain 231965.c01 (HIV-1). The experiment is described as follows: cell-based or functional assay.
The target of experiment [14] is Env of HIV-1 strain Ce2060_G9 (HIV-1). In words: cell-based or functional assay.
The target in experiment [15] is Env of HIV-1 strain 0815.v3.c3 (HIV-1). The experiment is described as follows: cell-based or functional assay.
For experiment [16], the target named is Env of HIV-1 strain PVO.4 (HIV-1). In words: cell-based or functional assay.
Experiment [17] concerns the target Env of HIV-1 strain CNE58 (HIV-1). In words: cell-based or functional assay.
Experiment [18] concerns the target Env of HIV-1 strain CNE30 (HIV-1). In words: cell-based or functional assay.
In experiment [19] the target is Env of HIV-1 strain CNE20 (HIV-1). In words: cell-based or functional assay.
In experiment [20] the target is Env of HIV-1 strain WITO4160.33 (HIV-1). In words: cell-based or functional assay.
In experiment [21] the target is Env of HIV-1 strain X1193_c1 (HIV-1). The experiment is described as follows: cell-based or functional assay.
Experiment [22] has as its target Env of HIV-1 strain TRO.11 (HIV-1). The experiment is described as follows: cell-based or functional assay.
Experiment [23] deals with Env of HIV-1 strain X2131_C1_B5 (HIV-1). In words: cell-based or functional assay.
Experiment [24] concerns the target Env of HIV-1 strain 1056_10_TA11_1826 (HIV-1). The experiment is described as follows: cell-based or functional assay.
Experiment [25] deals with Env of HIV-1 strain 0260.v5.c36 (HIV-1). The experiment is described as follows: cell-based or functional assay.
Experiment [26] addresses Env of HIV-1 strain 1012_11_TC21_3257 (HIV-1). In words: cell-based or functional assay.
The target in experiment [27] is Env of HIV-1 strain Ce0393_C3 (HIV-1). In words: cell-based or functional assay.
For experiment [28], the target named is Env of HIV-1 strain CNE5 (HIV-1). In words: cell-based or functional assay.
For experiment [29], the target named is Env of HIV-1 strain SC422661.8 (HIV-1). In words: cell-based or functional assay.
Experiment [30] deals with Env of HIV-1 strain 3415.v1.c1 (HIV-1). In words: cell-based or functional assay.
Experiment [31] deals with Env of HIV-1 strain ZM214M.PL15 (HIV-1). The experiment is described as follows: cell-based or functional assay.
The target in experiment [32] is Env of HIV-1 strain 1054_07_TC4_1499 (HIV-1). The experiment is described as follows: cell-based or functional assay.
For experiment [33], the target named is Env of HIV-1 strain X1632_S2_B10 (HIV-1). The experiment is described as follows: cell-based or functional assay.

Changes are numbered by the printed parent chain. Names may count otherwise.

B1: NIH45-46^G54W(HC), S28Y(LC) (antibody, V domains shown)
VH: QVRLSQSGGQMKKPGESMRLSCRASGYEFLNCPINWIRLAPGRRPEWMGWLKPRWGAVNYARKFQGRVTMTRDVYSDTAFLELRSLTSDDTAVYFCTRGKYCTARDYYNWDFEHWGRGAPVTVSS
VL: EIVLTQSPATLSLSPGETAIISCRTSQYGSLAWYQQRPGQAPRLVIYSGSTRAAGIPDRFSGSRWGADYNLSISNLESGDFGVYYCQQYEFFGQGTKVQVDI
B1: the IC50, pseudovirus neutralization in [1] worked out at 0.012 mg/L; in experiment [2] it was 0.004 mg/L; in experiment [3], 0.001 mg/L; in experiment [4] it was 0.001 mg/L; in experiment [5], 0.004 mg/L.

B2: NIH45-46^G54F IgG (antibody, name in Kabat numbering, V domains shown)
VH: B1 VH with W55F
VL: B1 VL with Y28S
Take B2: in [6], the neutralization IC50 came out at 16 mg/L.

B3: NIH45-46^G54W IgG (antibody, name in Kabat numbering, V domains shown)
VH: B1 VH
VL: B1 VL with Y28S
As for B3, the IC50, pseudovirus neutralization (TZM-bl, luciferase) in [7] is over 50 mg/L; in experiment [8] it was 0.008 mg/L; with N280Y (HIV-1), over 50 mg/L; in the experiment with R456W (HIV-1), 6 mg/L; with N280D (HIV-1) it was over 50 mg/L; in the experiment with G459D (HIV-1), 0.01 mg/L. Also, the IC50, pseudovirus neutralization (TZM-bl, luciferase) in experiment [9] stood at 18 mg/L. In addition, the neutralization IC50 in experiment [6] stood at 0.9 mg/L. Besides, the decrease of neutralization potency against YU2 in experiment [10] was over 1500 fold.

B4: NIH45-46^G54W (antibody, V domains shown)
VH: B1 VH
VL: B1 VL with Y28S
For B4, the IC50, pseudovirus neutralization came to 0.001 mg/L in [1], 0.01 mg/L in [2], 0.001 mg/L in experiment [4] and 0.01 mg/L in experiment [5]. Also, the concentration for an effect of 80% (IC80) worked out at 0.07 mg/L in [11]; 0.009 mg/L in [12]; 0.035 mg/L in [13]; 0.042 mg/L in experiment [14]; 0.003 mg/L in [15]; 0.16 mg/L in experiment [16]. In addition, the IC80 in [17] turned out to be 0.05 mg/L; in [18], 0.196 mg/L; in [19], 0.48 mg/L; in experiment [20], 0.04 mg/L; in experiment [21] it was 0.009 mg/L; in experiment [22], 0.13 mg/L. Also, the 80% effect concentration (IC80) in [23] was found to be 0.24 mg/L; in [24] it was 0.16 mg/L; in experiment [25] it was 0.399 mg/L; in experiment [26] it was 0.003 mg/L; in experiment [27] it was 0.089 mg/L; in experiment [28] it was 0.116 mg/L. Also, the 80% effect concentration (IC80) in [29] was 0.07 mg/L; in experiment [30] it was 0.023 mg/L; in experiment [31], 0.15 mg/L; in experiment [32], 0.165 mg/L.

B5: NIH45-46^G54W(HC) S28Y(LC) (antibody, V domains shown)
VH: B1 VH
VL: B1 VL
Turning to B5, the IC80 was determined as 0.084 mg/L in experiment [11]; 0.017 mg/L in experiment [12]; 0.035 mg/L in [13]; 0.062 mg/L in experiment [14]; 0.004 mg/L in experiment [15]; 0.099 mg/L in experiment [16]. The IC80 in experiment [17] is 0.042 mg/L; in experiment [18] it was 0.239 mg/L; in experiment [19] it was 0.02 mg/L; in experiment [20], 0.073 mg/L; in experiment [21], 0.054 mg/L; in experiment [22], 0.079 mg/L. The 80% effect concentration (IC80) in [23] worked out at 0.145 mg/L; in [24], 0.289 mg/L; in experiment [25] it was 0.084 mg/L; in experiment [26], 0.008 mg/L; in [27] it was 0.151 mg/L; in experiment [28], 0.137 mg/L. Also, the concentration for an effect of 80% (IC80) in experiment [33] turned out to be 0.007 mg/L; in experiment [29], 0.09 mg/L; in [30], 0.054 mg/L; in experiment [31] it was 0.258 mg/L; in experiment [32] it was 0.515 mg/L.
